Experimental data published in US20150152192A1 (SAMSUNG ELECTRONICS, published 2015).

How the values were obtained:
[1] = biological target: T1, human Ang2 polypeptide (R&D systems; Accession #O15123; SEQ ID NO: 172) (human, UniProt O15123 19-496); experiment: ELISA, antigen coated, scFv, anti-HA-HRP; 50% binding concentration (Kd)
T1 construct: Bought protein; also called hAng2; human Ang2 protein
T1 sequence: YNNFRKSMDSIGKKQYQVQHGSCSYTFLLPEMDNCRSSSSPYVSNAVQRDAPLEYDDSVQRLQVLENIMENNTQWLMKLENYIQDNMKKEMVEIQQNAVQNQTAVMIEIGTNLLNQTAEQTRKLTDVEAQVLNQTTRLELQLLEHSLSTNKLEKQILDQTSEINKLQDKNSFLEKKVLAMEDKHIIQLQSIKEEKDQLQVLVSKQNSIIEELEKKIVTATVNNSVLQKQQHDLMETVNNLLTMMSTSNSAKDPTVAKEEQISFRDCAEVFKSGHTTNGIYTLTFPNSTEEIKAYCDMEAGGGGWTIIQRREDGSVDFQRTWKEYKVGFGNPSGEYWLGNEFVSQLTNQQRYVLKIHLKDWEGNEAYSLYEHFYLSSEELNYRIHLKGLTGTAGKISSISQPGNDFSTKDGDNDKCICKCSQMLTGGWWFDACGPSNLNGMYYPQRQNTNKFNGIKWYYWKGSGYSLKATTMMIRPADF
Procedure: (§1) To measure binding of the antibodies prepared above with each antigen, ELISA was performed. A 96-well MaxiSorp™ flat-bottom plate (Nunc) was coated with 5˜20 μg/ml of human Ang2 and mouse Ang2 (Accession # NP_{—}031452) (both, R&D Systems). After that, the plate was washed five times with 0.05% (v/v) Tween-20-containing PBS and then blocked with 1% (v/v) BSA-containing PBS at a room temperature for 2 hours. The anti-Ang2 antibodies in their scFv forms prepared above were added to each well of the plate which was then allowed to react at a room temperature for 2 hours.
(§2) Thereafter, the plate was washed five times with 0.05% Tween-20-containing PBS and then, an HRP-conjugated anti-HA (HA-probe Antibody (F-7) HRP conjugated) antibody (Santacruz) diluted in 1% (v/v) BSA-containing PBS at 1:1,000 ratio (v/v) was added in the amount of 50 μl to each well to react at a room temperature for 1 hour, followed by washing five times with 0.1% (v/v) Tween-20-containing PBS. Finally, 100 μl of TMB substrate (cell signal) was added to each well of the plate to induce color development at a room temperature for 3 min and then, the reaction was ceased by the addition of 50 μl of 5N H₂SO₄ solution and OD450 values were measured on a plate reader (Molecular Devices).

[2] = biological target: T2, mouse Ang2 (Accession # NP-031452) (R&D Systems) (mouse, UniProt O35608 19-496, limits assumed); experiment: as above
T2 construct: Bought protein; also called mAng2
T2 sequence (looked up): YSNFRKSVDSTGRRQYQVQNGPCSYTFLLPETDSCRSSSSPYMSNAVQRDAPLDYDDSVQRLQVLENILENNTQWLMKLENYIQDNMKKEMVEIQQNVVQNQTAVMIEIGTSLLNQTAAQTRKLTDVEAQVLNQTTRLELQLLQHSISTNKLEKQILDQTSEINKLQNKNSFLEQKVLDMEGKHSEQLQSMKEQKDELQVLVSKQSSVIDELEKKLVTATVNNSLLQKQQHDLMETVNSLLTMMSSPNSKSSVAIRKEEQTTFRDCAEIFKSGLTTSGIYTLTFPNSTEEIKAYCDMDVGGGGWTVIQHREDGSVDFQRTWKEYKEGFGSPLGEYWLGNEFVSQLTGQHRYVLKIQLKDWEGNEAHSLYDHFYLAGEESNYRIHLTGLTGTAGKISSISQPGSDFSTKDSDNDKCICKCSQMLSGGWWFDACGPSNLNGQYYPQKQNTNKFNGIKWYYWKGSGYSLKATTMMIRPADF
Procedure: as §1, §2

| Binder | Kd [1] | Kd [2] |
| --- | --- | --- |
| SAIT-ANG-2-AB-2-E6 (scFv form) (scFv, V domains shown, scFv from a phage display library, partly purified from E. coli periplasm on Ni-NTA and detected with anti-HA) VH: EVQLLESGGGLVQTGGSLRLSCAASGFTFSDYAMSWVRQAPGKGLEWVSAIYPDSGNKYYADSVKGRFTISRDNSKNTLYLQMNSLRAEDTAVYYCARHSSDPKVKSGYYDDGMDVWGQGTLVAVSS VL: QSVLTQPPSASGTPGQRVTISCSGSSSNIGNNAVNWYQQLPGTAPKLLIYADSNRPSGVPDRFSGSKSGTSASLAISGLRSEDEADYYCGSWDYSLSGYVFGGGTKLTVLG | 9.3 nM | 5.1 nM |
| SAIT-ANG-2-AB-7-C9 (scFv form) (scFv, V domains shown, scFv from a phage display library) VH: EVQLLESGGGLVQPGGSLRLSCAASGFTFSNYAMSWVRQAPGKGLEWVSAISSGGGNIYYADSVKGRFTISRDNSKNTLYLQMNSLRAEDTAVYYCAKSGIQPSPPSMSSAYAMDVWGQGTLVTVSS VL: QSVLTQPPSASGTPGQRVTISCSGSSSNIGNNDVYWYQQLPGTAPKLLIYANSHRPSGVPDRFSGSKSGTSASLAISGLRSEDEADYYCGTWDYSLSGYVFGGGTKLTVLG | 3.8 nM | 8.7 nM |
| SAIT-ANG-2-AB-4-C11 (scFv form) (scFv, V domains shown, scFv from a phage display library) VH: EVQLLESGGGLVQPGGSLRLSCAASGFTFSDYAMSWVRQAPGKGLEWVSSIYPDDGNTYYADSVKGRFTISRDNSKNTLYLQMNSLRAEDTAVYYCARHTSHHTSIDGYYYYGMDGWGQGTLVTVSS VL: QSVLTQPPSASGTPGQRVTISCTGSSSNIGNNDVSWYQQLPGTAPKLLIYSDSKRPSGVPDRFSGSKSGTSASLAISGLRSEDEADYYCGSWDYSLSGYVFGGGTKLTVLG | 4.9 nM | 28.6 nM |
| SAIT-ANG-2-AB-4-F5 (scFv form) (scFv, V domains shown, scFv from a phage display library) VH: EVQLLESGGGLVQPGGSLRLSCAASGFTFSDYDMSWVRQAPGKGLEWVSSISHGDSNKYYADSVKGRFTISRDNSKNTLYLQMNSLRAEDTAVYYCAKSSGIQESPPTYYYYGMDVWGQGTLVTVSS VL: QSVLTQPPSASGTPGQRVTISCSGSSSNIGSNAVNWYQQLPGTAPKLLIYADSNRPSGVPDRFSGSKSGTSASLAISGLRSEDEADYYCGSWDYSLSGYVFGGGTKLTVLG | 12.1 nM | 23.8 nM |
| SAIT-ANG-2-AB-8-A5 (scFv form) (scFv, V domains shown, scFv from a phage display library) VH: EVQLLESGGGLVQPGGSLRLSCAASGFTFSDYYMSWVRQAPGKGLEWVSGIYPSGGSTYYADSVKGRFTISRDNSKNTLYLQMNSLRAEDTAVYYCARDPSTLTYAGFDYWGQGTLVTVSS VL: QSVLTQPPSASGTPGQRVTISCSGSSSNIGNNYVTWYQQLPGTAPKLLIYADSHRPSGVPDRFSGSKSGTSASLAISGLRSEDEADYYCATWDYSLSGYVFGGGTKLTVLG | 5.3 nM | 11.7 nM |
| SAIT-ANG-2-AB-4-F11 (scFv form) (scFv, V domains shown, scFv from a phage display library) VH: EVQLLESGGGLVQTGGSLRLSCAASGFTFSDYAMSWVRQAPGKGLEWVSSIYPDDGNTYYADSVKGRFTISRDNSKNTLYLQMNSLRAEDTAVYYCAKHPVRLNLHPMYYYYGMDVWGQGTLVTVSS VL: QSVLTQPPSASGTPGQRVTISCTGSSSNIGNNAVSWYQQLPGTAPKLLIYSDSQRPSGVPDRFSGSKSGTSASLAISGLRSEDEADYYCATWDYSLSAYVFGGGTKLTVLG | 3 nM | 20.7 nM |
| SAIT-ANG-2-AB-3-D3 (scFv form) (scFv, V domains shown, scFv from a phage display library) VH: EVQLLESGGGLVQPGGSLRLSCAASGFTFSDYDMSWVRQAPGKGLEWVSGISSDDGNTYYADSVKGRFTISRDNSKNTLYLQMNSLRAEDTAVYYCARPTIDKYTLRGYYSYGMDVWGQGTLVTVSS VL: QSVLTQPPSASGTPGQRVTISCTGSSSNIGSNYVSWYQQLPGTAPKLLIYSDNKRPSGVPDRFSGSKSGTSASLAISGLRSEDEADYYCGTWDDSLNGYVFGGGTKLTVLG | 4.3 nM | 37.8 nM |
